The text below walks through data of publication PMC3286128 (Biochemistry, 2012).

The target in this test is purified monomeric human β-actin (G-actin) (human, UniProt P60709 1-375). Kind of test: pull-down.

B1: sv1_(360–420ARM) peptide (peptide)
peptide: not shown
modifications: amino-terminal biotin
Turning to B1, the binding result is “binds”.
